Test results reported in the RNAGym collection of RNA variant scans (doi:10.1093/molbev/msab373).

B1: Azoarcus group I ribozyme (parent)
chain: GUGCCUUGCGCCGGGAAACCACGCAAGGGAUGGUGUCAAAUUCGGCGAAACCUAAGCGCCCGCCCGGGCGUAUGGCAACGCCGAGCCAAGCUUCGGCGCCUGCGCCGAUGAAGGUGUAGAGACUAGACGGCACCCACCUAAGGCAAACGCUAUGGUGAAGGCAUAGUCCAGGGAGUGGCGAAAGUCACACAAACCGG

Variants of: B1
Assay: reverse-splicing fitness (ratio to wild type); higher = more active; in vitro selection; Mg2+ level not given
Method in brief: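 An in vitro group I ribozyme library with randomized positions was T7-transcribed and gel-purified. In triplicate, 10 pmol RNA in EPPS pH 7.5 was reacted with 50 pmoles of a 30-nt RNA substrate for 1 h at 37 °C across several added MgCl2 levels (1–48 mM), then stopped with EDTA. Products were reverse transcribed from a substrate-complementary primer, PCR-amplified and sequenced (HiSeq 4000). Fitness is a variant's read proportion after selection over that before, normalised to wild type.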
For C82G A111C A120G C150U, the reverse-splicing fitness was 0.0121. C82G A111C A120G C150A showed a reverse-splicing fitness of 0.0103. C82G A111C A120G C150G showed a reverse-splicing fitness of 0.00691. With C82G A111C A120G A145U C169A U176G the reverse-splicing fitness was 0.00439. Work on C82G A111C A120G A145U C169A U176A yielded a reverse-splicing fitness of 0.0115. Variant C82G A111C A120G A145U C169A U176C has a reverse-splicing fitness of 0.00997. C82G A111C A120G A145C U176G gave a reverse-splicing fitness of 0.00507. With C82G A111C A120G A145C U176A the reverse-splicing fitness was 0.0152. With C82G A111C A120G A145C U176C the reverse-splicing fitness was 0.0166. Work on C82G A111C A120G A145C C150U C169G yielded a reverse-splicing fitness of 0.00885. In the case of C82G A111C A120G A145C C150U C169U, the reverse-splicing fitness is reported as 0.00687. Work on C82G A111C A120G A145C C150U C169A yielded a reverse-splicing fitness of 0.00816. Work on C82G A111C A120G A145G C150A yielded a reverse-splicing fitness of 0.00945. C82G A111C A120G A145G C150U gave a reverse-splicing fitness of 0.0132. For C82G A111C A120G A145G C150G, the reverse-splicing fitness was 0.00751. With C82G A111C A120G C150A C169U U176G the reverse-splicing fitness was 0.00512. With C82G A111C A120G C150A C169U U176C the reverse-splicing fitness was 0.0171. Variant C82G A111C A120G C150A C169U U176A has a reverse-splicing fitness of 0.022. Variant C82G A111C A120G A145C C150A has a reverse-splicing fitness of 0.00698. C82G A111C A120G A145C C150G showed a reverse-splicing fitness of 0.00634. C82G A111C A120G A145C C150U showed a reverse-splicing fitness of 0.00925. In the case of C82G A111C A120G A145U U176C, the reverse-splicing fitness is reported as 0.0232. Variant C82G A111C A120G A145U U176A has a reverse-splicing fitness of 0.016. In the case of C82G A111C A120G A145U U176G, the reverse-splicing fitness is reported as 0.00575. With C82G A111C A120G A145U C169U U176C the reverse-splicing fitness was 0.014. Work on C82G A111C A120G A145U C169U U176A yielded a reverse-splicing fitness of 0.0144. With C82G A111C A120G A145U C169U U176G the reverse-splicing fitness was 0.00395. C82G A111C A120G A145G C150U C169U U176C gave a reverse-splicing fitness of 0.0145. In the case of C82G A111C A120G A145G C150U C169U U176A, the reverse-splicing fitness is reported as 0.0141. Variant C82G A111C A120G A145G C150U C169U U176G has a reverse-splicing fitness of 0.00501. C82G A111C A120G A145C C169U U176C gave a reverse-splicing fitness of 0.0154. For C82G A111C A120G A145C C169U U176G, the reverse-splicing fitness was 0.00406. In the case of C82G A111C A120G A145C C169U U176A, the reverse-splicing fitness is reported as 0.0164. For C82G A111C A120G C150G C169A, the reverse-splicing fitness was 0.00888. With C82G A111C A120G C150G C169G the reverse-splicing fitness was 0.00781. Work on C82G A111C A120G C150G C169U yielded a reverse-splicing fitness of 0.00835. C82G A111C A120G A145G C150A C169A showed a reverse-splicing fitness of 0.0104. With C82G A111C A120G A145G C150A C169U the reverse-splicing fitness was 0.00904. Work on C82G A111C A120G A145G C150A C169G yielded a reverse-splicing fitness of 0.00949. In the case of C82G A111C A120G C150G U176C, the reverse-splicing fitness is reported as 0.0153. C82G A111C A120G C150G U176A showed a reverse-splicing fitness of 0.00843. Variant C82G A111C A120G C150G U176G has a reverse-splicing fitness of 0.00284. For C82G A111C A120G A145C C150G C169G U176A, the reverse-splicing fitness was 0.00837. For C82G A111C A120G A145C C150G C169G U176C, the reverse-splicing fitness was 0.00726. C82G A111C A120G A145C C150G C169G U176G showed a reverse-splicing fitness of 0.00499. C82G A111C A120G A145G U176C showed a reverse-splicing fitness of 0.0204. With C82G A111C A120G A145G U176G the reverse-splicing fitness was 0.00675. In the case of C82G A111C A120G A145G U176A, the reverse-splicing fitness is reported as 0.017. C82G A111C A120U A145C C150G gave a reverse-splicing fitness of 0.008. C82G A111C A120U A145C C150A showed a reverse-splicing fitness of 0.00458. C82G A111C A120G A145U C150G C169G U176A showed a reverse-splicing fitness of 0.0071. Work on C82G A111C A120G A145U C150G C169G U176C yielded a reverse-splicing fitness of 0.00521. C82G A111C A120G A145U C150G C169G U176G showed a reverse-splicing fitness of 0.00512. Variant C82G A111C A120G C169U U176G has a reverse-splicing fitness of 0.00516. Variant C82G A111C A120G C169U U176C has a reverse-splicing fitness of 0.0141. C82G A111C A120G C169U U176A gave a reverse-splicing fitness of 0.0181. Variant C82G A111C A120G A145U C150G has a reverse-splicing fitness of 0.00698. Variant C82G A111C A120G A145U C150U has a reverse-splicing fitness of 0.0124. In the case of C82G A111C A120G A145U C150A, the reverse-splicing fitness is reported as 0.00783. For C82G A111C A120G A145G C150U C169A U176G, the reverse-splicing fitness was 0.00695. Variant C82G A111C A120G A145G C150U C169A U176C has a reverse-splicing fitness of 0.0147. For C82G A111C A120G A145G C150U C169A U176A, the reverse-splicing fitness was 0.0152. Work on C82G A111C A120G A145G C150G C169G U176A yielded a reverse-splicing fitness of 0.0101. C82G A111C A120G A145G C150G C169G U176G showed a reverse-splicing fitness of 0.00591. With C82G A111C A120G A145G C150G C169G U176C the reverse-splicing fitness was 0.0123. For C82G A111C A120G C150A C169A U176C, the reverse-splicing fitness was 0.0214. In the case of C82G A111C A120G C150A C169A U176G, the reverse-splicing fitness is reported as 0.00716. C82G A111C A120G C150A C169A U176A gave a reverse-splicing fitness of 0.0179. In the case of C82G A111C A120C U176C, the reverse-splicing fitness is reported as 0.0268. C82G A111C A120C U176A showed a reverse-splicing fitness of 0.018. Variant C82G A111C A120C U176G has a reverse-splicing fitness of 0.00944. With C82G A111C A120G A145C C169G the reverse-splicing fitness was 0.0134. For C82G A111C A120G A145C C169U, the reverse-splicing fitness was 0.00967. C82G A111C A120G A145C C169A showed a reverse-splicing fitness of 0.00807. With C82G A111C A120G A145G C169A U176C the reverse-splicing fitness was 0.0271. For C82G A111C A120G A145G C169A U176A, the reverse-splicing fitness was 0.0209. For C82G A111C A120G A145G C169A U176G, the reverse-splicing fitness was 0.00447. With C82G A111C A120U A145C C150G C169A the reverse-splicing fitness was 0.00373. C82G A111C A120U A145C C150G C169U gave a reverse-splicing fitness of 0.00395. In the case of C82G A111C A120U A145C C150G C169G, the reverse-splicing fitness is reported as 0.0033. C82G A111C A120G A145G C150U U176A showed a reverse-splicing fitness of 0.0105. C82G A111C A120G A145G C150U U176G gave a reverse-splicing fitness of 0.00692. C82G A111C A120G A145G C150U U176C gave a reverse-splicing fitness of 0.0183.
